Experiment [1] deals with human BTLA-Fc (human) (UniProt Q7Z6A9). The experiment can be described thus: SPR, human BTLA-Fc immobilised, Fc fusion as analyte, bivalent analysis.
Experiment [2] has the same target. Kind of experiment: SPR, human BTLA-Fc immobilised, Fc fusion as analyte, monovalent analysis.
Experiment [3] has the same target. The experiment can be described thus: SPR, human BTLA-Fc immobilised, Fc fusion as analyte, monovalent (1:1) analysis.
For experiment [4], the target named is T1, human BTLA Q37A mutant on EL4 cells (human, UniProt Q7Z6A9 31-289).
T1 construct: whole, on cells; also called Gln37
Kind of experiment: flow cytometry, EL4 cells transduced with mutant human BTLA, HVEM-Fc then anti-human Fc [panel B].

Experiment [5] has as its target T2, human BTLA R42D mutant on EL4 cells (human, UniProt Q7Z6A9 31-289).
T2 construct: whole, on cells; also called Arg42
The description is as above.

Experiment [6] has as its target T3, human BTLA P59A mutant on EL4 cells (human, UniProt Q7Z6A9 31-289).
T3 construct: whole, on cells; also called Pro59
The experiment is described as above.

Experiment [7] addresses T4, human BTLA H127D mutant on EL4 cells (human, UniProt Q7Z6A9 31-289).
T4 construct: whole, on cells; also called His127
The experiment is described as above.

For experiment [8], the target named is T5, BTLA (form in the assay not stated) (UniProt Q7Z6A9 31-157).
T5 sequence: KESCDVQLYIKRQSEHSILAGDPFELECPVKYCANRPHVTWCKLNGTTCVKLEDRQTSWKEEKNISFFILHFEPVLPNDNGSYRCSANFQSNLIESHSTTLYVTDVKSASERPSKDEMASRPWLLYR
The experiment can be described thus: not told.

In experiment [9] the target is T6, wild-type human BTLA on cells (human, UniProt Q7Z6A9 31-289).
T6 construct: whole, on cells
The experiment can be described thus: co-expression on 293T cells, loss of staining by Fc ligands in trans.

In experiment [10] the target is T7, human HVEM P59S mutant on 293T cells (human, UniProt Q92956 39-283).
T7 construct: also called Pro^59
T7 sequence: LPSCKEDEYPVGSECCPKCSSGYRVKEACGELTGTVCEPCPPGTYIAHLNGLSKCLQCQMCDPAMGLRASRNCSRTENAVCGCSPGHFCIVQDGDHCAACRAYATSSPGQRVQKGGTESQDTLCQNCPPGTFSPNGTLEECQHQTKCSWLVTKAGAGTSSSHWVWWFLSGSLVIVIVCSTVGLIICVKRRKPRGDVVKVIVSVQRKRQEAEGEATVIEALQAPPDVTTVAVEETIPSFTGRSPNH
Kind of experiment: flow cytometry, CD160-Fc on 293T cells with mutant HVEM.

Experiment [11] has as its target T8, human HVEM A102P mutant on 293T cells (human, UniProt Q92956 39-283).
T8 construct: also called Ala^102
T8 sequence: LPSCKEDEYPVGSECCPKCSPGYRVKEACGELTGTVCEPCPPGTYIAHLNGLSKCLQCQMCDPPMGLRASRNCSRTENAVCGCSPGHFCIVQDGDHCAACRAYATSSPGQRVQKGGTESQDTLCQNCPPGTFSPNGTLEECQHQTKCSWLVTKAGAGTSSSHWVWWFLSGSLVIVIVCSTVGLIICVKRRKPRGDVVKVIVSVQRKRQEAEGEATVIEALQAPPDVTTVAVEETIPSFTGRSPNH
The experiment is described as above.

Experiment [12] has as its target T9, human HVEM R109W mutant on 293T cells (human, UniProt Q92956 39-283).
T9 construct: also called Arg^109
T9 sequence: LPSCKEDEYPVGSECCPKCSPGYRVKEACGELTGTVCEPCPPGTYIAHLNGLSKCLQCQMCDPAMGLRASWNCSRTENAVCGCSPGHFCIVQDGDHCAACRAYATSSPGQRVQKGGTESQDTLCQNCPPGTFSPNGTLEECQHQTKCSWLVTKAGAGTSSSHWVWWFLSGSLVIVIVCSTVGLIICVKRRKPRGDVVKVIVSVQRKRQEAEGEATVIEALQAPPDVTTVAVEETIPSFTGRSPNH
The experiment is described as above.

Experiment [13] addresses T10, human HVEM Y61C mutant on 293T cells (human, UniProt Q92956 39-283).
T10 construct: also called Tyr^61
T10 sequence: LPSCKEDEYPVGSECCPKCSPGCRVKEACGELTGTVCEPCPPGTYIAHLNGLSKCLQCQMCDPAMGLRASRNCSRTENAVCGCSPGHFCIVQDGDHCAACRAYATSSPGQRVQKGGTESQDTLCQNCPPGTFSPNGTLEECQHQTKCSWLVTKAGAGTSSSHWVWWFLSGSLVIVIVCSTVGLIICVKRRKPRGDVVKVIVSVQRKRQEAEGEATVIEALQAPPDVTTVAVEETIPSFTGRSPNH
The experiment is described as above.

For experiment [14], the target named is T11, human HVEM G72D mutant on 293T cells (human, UniProt Q92956 39-283).
T11 construct: also called Gly^72
T11 sequence: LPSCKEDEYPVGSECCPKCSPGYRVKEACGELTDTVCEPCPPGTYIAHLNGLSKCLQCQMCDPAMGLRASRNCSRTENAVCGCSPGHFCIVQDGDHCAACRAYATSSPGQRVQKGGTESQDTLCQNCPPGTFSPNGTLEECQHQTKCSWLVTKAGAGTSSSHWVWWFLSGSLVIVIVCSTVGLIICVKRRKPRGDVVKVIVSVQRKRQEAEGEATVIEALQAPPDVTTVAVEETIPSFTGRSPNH
The experiment is described as above.

Experiment [15] deals with T12, human HVEM G60D mutant on 293T cells (human, UniProt Q92956 39-283).
T12 construct: also called Gly^60
T12 sequence: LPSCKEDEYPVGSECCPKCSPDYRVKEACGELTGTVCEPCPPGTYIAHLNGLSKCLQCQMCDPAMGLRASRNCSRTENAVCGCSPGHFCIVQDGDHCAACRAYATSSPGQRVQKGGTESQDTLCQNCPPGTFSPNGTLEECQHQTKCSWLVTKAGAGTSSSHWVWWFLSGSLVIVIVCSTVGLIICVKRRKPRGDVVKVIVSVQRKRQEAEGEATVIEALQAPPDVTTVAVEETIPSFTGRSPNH
The experiment is described as above.

In experiment [16] the target is T13, human HVEM T82P mutant on 293T cells (human, UniProt Q92956 39-283).
T13 construct: also called Thr^82
T13 sequence: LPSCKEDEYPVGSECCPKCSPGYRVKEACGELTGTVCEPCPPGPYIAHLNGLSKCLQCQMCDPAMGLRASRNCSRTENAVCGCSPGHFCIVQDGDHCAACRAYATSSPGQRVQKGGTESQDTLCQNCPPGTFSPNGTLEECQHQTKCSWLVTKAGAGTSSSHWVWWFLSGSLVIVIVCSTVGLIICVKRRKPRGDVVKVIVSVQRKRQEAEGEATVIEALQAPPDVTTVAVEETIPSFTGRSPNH
Described as above.

Experiment [17] deals with T12, human HVEM G60D mutant on 293T cells. The experiment can be described thus: flow cytometry, LIGHT on 293T cells with mutant HVEM.
The target in experiment [18] is T13, human HVEM T82P mutant on 293T cells. Described as above.

human BTLA-Fc (human), sequence (Q7Z6A9 26-150 limits assumed): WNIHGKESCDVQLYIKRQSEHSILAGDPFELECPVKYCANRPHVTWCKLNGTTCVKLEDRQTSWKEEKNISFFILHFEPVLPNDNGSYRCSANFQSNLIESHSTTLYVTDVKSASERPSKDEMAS

On to “human HVEM-Fc (from UniProt Q92956 39-184) (Fc fusion)”, for which, in the experiment with human BTLA-Fc (human) [1], the ka1 was found to be 15300 M⁻¹ s⁻¹, the ka2 is 0.0573 M⁻¹ s⁻¹, the kd1 was determined as 0.00902 s⁻¹ and the kd2 came to 2.05 s⁻¹. Further, in the experiment with human BTLA-Fc (human) [2], the koff is 0.0066 s⁻¹ and the kon turned out to be 37400 M⁻¹ s⁻¹. This molecule also registered a Kd with human BTLA-Fc (human) [3] of 177 nM.

In the experiment with human BTLA-Fc (human) [1], human CMV UL144-Fc (Fc fusion) displayed a ka1 of 7810 M⁻¹ s⁻¹, a ka2 of 1.39e-05, a kd1 of 0.0051 s⁻¹ and a kd2 of 0.00289 s⁻¹. Also, in the experiment with human BTLA-Fc (human) [2], the koff worked out at 0.00476 s⁻¹ and the kon came to 16100 M⁻¹ s⁻¹. This molecule also gave a Kd in the experiment with human BTLA-Fc (human) [3] of 295 nM.

B1: human HVEM-Fc (Fc fusion)
chain: LPSCKEDEYPVGSECCPKCSPGYRVKEACGELTGTVCEPCPPGTYIAHLNGLSKCLQCQMCDPAMGLRASRNCSRTENAVCGCSPGHFCIVQDGDHCAACRAYATSSPGQRVQKGGTESQDTLCQNCPPGTFSPNGTLEECQHQTK
notes: also called parental HVEM-Fc; not shown: human IgG Fc region
For B1, the binding result in experiment [4], in experiment [5], in [6] and in experiment [7] was “no binding” in each case.

B2: HVEM-RTWA (HVEM-Fc mutein with S58R, G68T, L70W and L90A) (Fc fusion)
chain: LPSCKEDEYPVGSECCPKCRPGYRVKEACTEWTGTVCEPCPPGTYIAHLNGASKCLQCQMCDPAMGLRASRNCSRTENAVCGCSPGHFCIVQDGDHCAACRAYATSSPGQRVQKGGTESQDTLCQNCPPGTFSPNGTLEECQHQTK
notes: also called RTWA mutant; HVEM^RTWA Fc; not shown: human IgG Fc region
Regarding B2, the “fold enhancement of BTLA affinity (against HVEM-RA)” value in [8] is 10 fold.

B3: wild-type human HVEM on 293T cells (receptor)
chain: LPSCKEDEYPVGSECCPKCSPGYRVKEACGELTGTVCEPCPPGTYIAHLNGLSKCLQCQMCDPAMGLRASRNCSRTENAVCGCSPGHFCIVQDGDHCAACRAYATSSPGQRVQKGGTESQDTLCQNCPPGTFSPNGTLEECQHQTKCSWLVTKAGAGTSSSHWVWWFLSGSLVIVIVCSTVGLIICVKRRKPRGDVVKVIVSVQRKRQEAEGEATVIEALQAPPDVTTVAVEETIPSFTGRSPNH
notes: also called TNFRSF14
With B3, the binding result in experiment [9] is given as “binds”.

B4: CD160-Fc (Fc fusion)
chain: INITSSASQEGTRLNLICTVWHKKEEAEGFVVFLCKDRSGDCSPETSLKQLRLKRDPGIDGVGEISSQLMFTISQVTPLHSGTYQCCARSQKSGIRLQGHFFSILFTETGNYTVTGLKQRQHLEFSHNEGTLS
As for B4, the binding result in [10], in [11], in experiment [12], in [13], in [14] and in experiment [15] was “no binding” throughout. Further, the binding result in [16] was “no binding”.

B5: LIGHT (ligand)
chain: DGPAGSWEQLIQERRSHEVNPAAHLTGANSSLTGSGGPLLWETQLGLAFLRGLSYHDGALVVTKAGYYYIYSKVQLGGVGCPLGLASTITHGLYKRTPRYPEELELLVSQQSPCGRATSSSRVWWDSSFLGGVVHLEAGEKVVVRVLDERLVRLRDGTRSYFGAFMV
notes: also called TNFSF ligand LIGHT
With B5, the binding result in experiment [17] and in [18] was “no binding” throughout.

(Values after US10961297 (SANFORD BURNHAM PREBYS MEDICAL DISCOVERY INSTITUTE, dated 2021).)
